Measured values reported in article PMC7330524, “Genome-Wide Analysis of Serine Carboxypeptidase-Like Acyltransferase Gene Family for Evolution and Characterization of Enzymes Involved in the Biosynthesis of Galloylated Catechins in the Tea Plant (Camellia sinensis)” (Frontiers in Plant Science, 2020).

Assays:
purified protein = substrate: Oc1cc(O)c2c(c1)O[C@H](c1cc(O)c(O)c(O)c1)[C@H](O)C2; assay: purified protein; details: 0.4 mM PGG as donor, potassium phosphate pH 6.0, 30 °C
[1] = substrate: Oc1cc(O)c2c(c1)O[C@H](c1ccc(O)c(O)c1)[C@H](O)C2; assay: HPLC galloyltransferase assay, Lineweaver-Burk; type: biochemical, Camellia sinensis; details: 0.4 mM PGG as donor, potassium phosphate pH 6.0, 30 °C
[2] = substrate: O=C(OC[C@H]1O[C@@H](OC(=O)c2cc(O)c(O)c(O)c2)[C@H](OC(=O)c2cc(O)c(O)c(O)c2)[C@@H](OC(=O)c2cc(O)c(O)c(O)c2)[C@@H]1OC(=O)c1cc(O)c(O)c(O)c1)c1cc(O)c(O)c(O)c1; assay: HPLC galloyltransferase assay, Lineweaver-Burk; type: biochemical, Camellia sinensis; details: 1.0 mM EGC as acceptor, potassium phosphate pH 6.0, 30 °C

| Protein | Km (purified protein) [µM] | Vmax (purified protein) [µmol/min/mg] | kcat (purified protein) [s⁻¹] | kcat/Km (purified protein) [M⁻¹ s⁻¹] | Km [1] [µM] | Vmax [1] [µmol/min/mg] | kcat [1] [s⁻¹] | kcat/Km [1] [M⁻¹ s⁻¹] | Km [2] [µM] | Vmax [2] [µmol/min/mg] | kcat [2] [s⁻¹] | kcat/Km [2] [M⁻¹ s⁻¹] |
| --- | --- | --- | --- | --- | --- | --- | --- | --- | --- | --- | --- | --- |
| CsSCPL11-IA (Camellia sinensis var. sinensis) (protein, N-terminal 50 residues (transmembrane region) deleted, Met inserted; His-tag (pDEST17); E. coli; nickel resin, partially purified; full protein 450 residues, 51 kD) ELPFKLETGYALIYIRVNESELFYYFIESQGNPQEDPIFLWLPGGPGCSSFHELVYGFGMVKILIVKTASIIFLDAPVGTGFSYSRTADGWPTSDSKSAEQSYQFLREWFDEHPQYLAVQLFVGKGNKDGVKPFMNLKGYLLGSPRTDSVIDENSKVVFAHRMALISDEIYENAKTGCNDTYVSIDPANTACIVALGNIKTCIKDLFRNDILEPKCVFATPDPGEEPAARRSLEEGPSDFLLSPPMIPNLWCRNFNYVLSYIWSNDDTVQEVLHVRKGSVLNWERCNKSLSYTKDILTVVPVHEELKELGLEVLVETGDRDMVVPFVGTVKWIKSLNLTVVNDWRPWFVDGQVAGYTIKYSEHGYRLTYATVKGAGHTAPEYYRMECYYMFDRWIHYYPI | 40.67 ± 5.56 | 13.2 | 219 | 5.39e+06 | 85.39 ± 10.62 | 16.1 | 269 ± 22.8 | 3.14e+06 ± 640000 | 13.34 ± 1.78 | 4.05 | 67.5 ± 7.34 | 5.06e+06 ± 970000 |
| CsSCPL14-IA (Camellia sinensis var. sinensis) (protein, N-terminal 50 residues (transmembrane region) deleted, Met inserted; His-tag (pDEST17); E. coli; nickel resin, partially purified; full protein 413 residues, 46 kD) SVDDSELFYYFIESEGNPQEDPLFLWLTGGPGCTSFSGLLYEVGPMEYDIDNYTGGLPKLKYYPYARTKTASMIFLDAPVGTGFSYARTPGGWPTSDTKSAEQSYQFLRKWLVEHPQFLSVQLFVGGDSYAGLTVPLITKKIIDGNKEKAKPYMNIKGYLVGCPGTDSVIDGNSRVDFAHRMALISDEIYENAKRSCNENYINVDPANTACITAMGAIQKCLKDLSDKDILKPKCDLSSQDHPEGPDRRFLKEGSSEFLLSPSTFPKPWCTTLKLTHNSIWANDDGVQEALHVRKGTVPRWERCNNSLSYTQDVLSVIAVHKELSRSSLEVLVERFFIFFLLLPAANRPSLPSRPPDNLTHHS | 103.38 ± 15.63 | 62.5 | 1040 | 1.01e+07 | 64.28 ± 0.81 | 20 | 333 ± 35.2 | 5.19e+06 ± 480000 | 20.81 ± 3.51 | 10.6 | 177 ± 22.8 | 8.52e+06 ± 1.38e+06 |
| CsSCPL13-IA (Camellia sinensis var. sinensis) (protein, full length, His-tag (pDEST17); E. coli; nickel resin, partially purified; 498 residues, 56 kD) MVQVEAIAASQKQLLQKPSCAWIRWVQNHLLLQLLLAQPVLGGQIVKYLPGFDGELPFKLETGQLKSDDGFVVDFDRYISVDDSELFYYFIESEGNPQEDPLFLWLTGGPGCTSFSGLLYEVGPMEYDIDNYTGGLPKLKYYPYARTKTASMIFLDAPVGTGFSYARTPGGWPTSDTKSAEQSYQFLRKWLVEHPQFLSVQLFVGGDSYAGLAVPLITKKIIDGNKEKAEPYMNIKGYLVGCPGTDSVIDGNSRVDFAHRMALISDEIYENAKRSCNENYINVDPANTACITAMGAVQKCLEDLSDKDILKPKCDLSSQDHPEGPDRRFLKEGSSEFLLSPSTFPKSWCTTLKLTHNSIWANDDGVQEALHVRKGTVPRWERCNNSLSYTKDVSSVIAVHKELSRSSLEVLVESGDHDISVPYMGTLKWIKSLNLTLVDDWRPWFVDNQVAGYTMKYSEEHGYHLTFATIKGAGHPAPEYYRRECYCLFDRWINYNPV | 49.73 ± 8.36 | 20.4 | 340 | 6.84e+06 | 160.41 ± 21.2 | 37 | 617 ± 62.5 | 3.85e+06 ± 420000 | 10.43 ± 1.25 | 3.67 | 61 ± 8.82 | 5.85e+06 ± 840000 |
